In US20160137696A1 (Bristol-Myers Squibb, published 2016):
Starred links: 1 amine or outer side, 2 acyl side, 3 side chain; linkers in the order of their positions; H or OH if unused. Positions of bridges follow the written chain, without caps; N, C: chain ends. Non-standard residues stand in square brackets, D forms with d. Groups on a side chain read outwards from the residue. Primed or numbered codes have the meaning given here. No end group written: not given here. *: point of attachment. PEG8′ = PEG8 unit (23-azido-3,6,9,12,15,18,21-heptaoxatricosyl, i.e. an eight-unit PEG spacer) linking the triazole to vitamin E succinate; Pra′ = propargylglycine (built in as LPH), clicked to a 1-substituted triazol-4-yl-alanine, O=C([C@H](Cc1cn([*:3])nn1)N[*:1])[*:2]; X1 = (S)‑3‑carboxy‑3‑(15-carboxypentadecanoylamino)propyl, O=C(O)CCCCCCCCCCCCCCC(=O)N[C@@H](CC*)C(=O)O; Pra″ = its azide, alkyne or alkene has reacted where a group follows in round brackets; X2 = (S)‑3‑carboxy‑3‑palmitamidopropyl, CCCCCCCCCCCCCCCC(=O)N[C@@H](CC*)C(=O)O; Pra(3) = propargylglycine, clicked to an azide to give a triazolyl-alanine; triazole = 1,2,3-triazole formed by click of the Pra alkyne with the azide; Trp(1-CH2CO) = O=C([C@H](Cc1cn(CC(=O)[*:3])c2ccccc12)N[*:1])[*:2]; Phe(3,4,5-F3) = N[C@@H](Cc1cc(F)c(F)c(F)c1)C(=O)O; Biotin = O=C1N[C@H]2[C@H](CS[C@H]2CCCCC(=O)*)N1; C18 diacid = O=C(O)CCCCCCCCCCCCCCCCC(=O)*; Phe(4-F) = N[C@@H](Cc1ccc(F)cc1)C(=O)O; γGlu = O=C(O)[C@H](CCC(=O)[*:2])N[*:1]; Palmitoyl = CCCCCCCCCCCCCCCC(=O)*; Hyp = O=C(O)[C@@H]1C[C@@H](O)CN1; NMeF = CN[C@@H](Cc1ccccc1)C(=O)O; NMeE = CN[C@@H](CCC(=O)O)C(=O)O; dHyp = O=C(O)[C@H]1C[C@H](O)CN1; NMeNle = CCCC[C@H](NC)C(=O)O; Suc = O=C(CCC(=O)[*:2])[*:1]; triazole″ = not defined here; Pip = O=C(O)[C@@H]1CCCCN1; NMeA = CN[C@@H](C)C(=O)O; Orn = NCCC[C@H](N)C(=O)O; PEG7′ = not defined here; Pra = C#CC[C@H](N)C(=O)O; Dab = NCC[C@H](N)C(=O)O; Dap = NC[C@H](N)C(=O)O; Sar = CNCC(=O)O

B1: INT-1400J (peptide)
peptide: {CH2CO}-Y[NMeA]DPHK[Hyp]WK[Trp(1-CH2CO)][NMeNle][NMeNle]ECG[Pra]
modifications: thioether N-14; not fully specified (C-terminus); printed as ClAc-Tyr-mAla-Asp-Pro-His-Lys-Hyp-Trp-Lys-Trp(1-carboxymethyl)-mNle-mNle-Glu-Cys-Gly-[(S)-propargylglycine], cyclised ClAc-Cys
notes: also called Intermediate 1400J
B2: Example 14088 (peptide)
peptide: FFXPDVFDPWYLCGX
modifications: as m17 (INT 1400L); Pra triazole-linked to vitamin E succinate 5-azidopentylamide
B3: Example 14084 (peptide)
peptide: {CH2CO}-[Phe(3,4,5-F3)][NMeF][NMeNle][dHyp]DV[NMeF]D[dP]WYLCG[Pra″]([triazole-(S)‑3‑carboxy‑3‑aminopropyl-Palmitoyl])
modifications: thioether N-13; not fully specified; printed as ClAc-F3Phe-mPhe-mNle-dHyp-Asp-Val-mPhe-Asp-dPro-Trp-Tyr-Leu-Cys-Gly-[(S)-propargylglycine]

Columns and labels:
[1] = target: T1, Recombinant Human PD-L1-TVMV-His (human, UniProt Q9NZQ7 19-239); test: HTRF vs PD-1-Ig
T1 construct: expressed in HEK293T cells; also called PD-L1-His; hPD-L1(19-239)-TVMV-His
T1 sequence (Q9NZQ7 other isoform, or with tags, fused parts or gaps limits assumed): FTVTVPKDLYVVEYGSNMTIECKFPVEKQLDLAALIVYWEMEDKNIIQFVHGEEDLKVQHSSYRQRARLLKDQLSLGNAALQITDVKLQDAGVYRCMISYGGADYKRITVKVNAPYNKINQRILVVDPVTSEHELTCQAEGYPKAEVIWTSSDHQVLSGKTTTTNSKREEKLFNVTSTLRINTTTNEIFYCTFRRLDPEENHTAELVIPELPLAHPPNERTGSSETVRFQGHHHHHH
Procedure: (§1) Homogenous Time-Resolved Fluorescence (HTRF) Assays of Binding of Soluble PD-1 to Soluble PD-L1. Soluble PD-1 and soluble PD-L1 refers to proteins with carboxyl-end truncations that remove the transmembrane-spanning regions and are fused to heterologous sequences, specifically the Fc portion of the human immunoglobuling G sequence (Ig) or the hexahistidine epitope tag (His). All binding studies were performed in an HTRF assay buffer consisting of dPBS supplemented with 0.1% (w/v) bovine serum albumin and 0.05% (v/v) Tween-20. For the PD-1-Ig/PD-L1-His binding assay, inhibitors were pre-incubated with PD-L1-His (10 nM final) for 15 m in 4 μl of assay buffer, followed by addition of PD-1-Ig (20 nM final) in 1 μl of assay buffer and further incubation for 15 m. PD-L1 fusion proteins from either human, cynomologous macaques, mouse, or other species were used. HTRF detection was achieved using europium crypate-labeled anti-Ig monoclonal antibody (1 nM final) and allophycocyanin (APC) labeled anti-His monoclonal antibody (20 nM final). Antibodies were diluted in HTRF detection buffer and 5 μl was dispensed on top of binding reaction. The reaction was allowed to equilibrate for 30 minutes and signal (665 nm/620 nm ratio) was obtained using an EnVision fluorometer. Additional binding assays were established between PD-I-Ig/PD-L2-His (20 and 5 nM, respectively), CD80-His/PD-L1-Ig (100 and 10 nM, respectively) and CD80-His/CTLA4-Ig (10 and 5 nM, respectively). Binding/competition studies between biotinylated Compound No. 71 and human PD-L1-His were performed as follows. Macrocyclic peptide inhibitors were pre-incubated with PD-L1-His (10 nM final) for 60 minutes in 4 μl of assay buffer followed by addition of biotinylated Compound No. 71 (0.5 nM final) in 1 μl of assay buffer. Binding was allowed to equilibrate for 30 minutes followed by addition of europium crypated labeled Streptavidin (2.5 pM final) and APC-labeled anti-His (20 nM final) in 5 μl of HTRF buffer. The reaction was allowed to equilibrate for 30 m and signal (665 nm/620 nm ratio) was obtained using an EnVision fluorometer.

[2] = target: T1, Recombinant Human PD-L1-TVMV-His; test: HTRF vs PD-1-Ig; A = IC50 0.10-1.6 µM
Procedure: as §1

[3] = target: T1, Recombinant Human PD-L1-TVMV-His; test: HTRF vs PD-1-Ig; B = IC50 0.01-0.099 µM
Procedure: as §1

| Binder | IC50 [1] [nM] | IC50 [2] [nM] | IC50 [3] [nM] |
| --- | --- | --- | --- |
| {CH2CO}-[Phe(4-F)][Pip]DP[Dap]L[Hyp]W[Dab][Trp(1-CH2CO)][NMeNle][NMeNle]LCG[Dab]([γGlu-C18 diacid]) (thioether N-14 (inferred)) [Example 13150] | 20.9 | – | – |
| B1 | 8.8 | – | – |
| {CH2CO}-Y[NMeA]DPHQ[Hyp]WSW[NMeNle][NMeNle]ECG[Pra(3)]([triazole″-PEG8′-Suc-vitamin E])G (thioether N-14; reading uncertain) [Example 14055] | 388 | – | – |
| B2 | 799 | – | – |
| {CH2CO}-Y[NMeA]NP[Dap]L[Hyp]W[Dab][Trp(1-CH2CO)][NMeNle][NMeNle]LCGG[Pra″]([triazole-(S)‑4‑azido‑2‑palmitamidobutanoic acid]) (thioether N-14 (inferred)) [Example 13122] | – | 100 to 1600 | – |
| {CH2CO}-Y[NMeA]NP[Dap]L[Hyp]W[Dab][Trp(1-CH2CO)][NMeNle][NMeNle]LCGG[Pra″]([triazole-PEG7′-γGlu-C18 diacid]) (thioether N-14 (inferred)) [Example 13123] | 150 | – | – |
| {CH2CO}-Y[NMeA]DPHK[Hyp]WKW[NMeNle][NMeNle]ECG[Pra′]([triazole-X1]) (thioether N-14) [Example 14067] | 10.4 | – | – |
| {CH2CO}-Y[NMeA]DPHK[Hyp]WK[Trp(1-CH2CO)][NMeNle][NMeNle]ECG[Pra′]([triazole-X2]) (thioether N-14) [Example 14072] | 8.5 | – | – |
| {CH2CO}-Y[NMeA]DPHK[Hyp]WK[Trp(1-CH2CO)][NMeNle][NMeNle]ECG[Pra′]([triazole-X1]) (thioether N-14) [Example 14078] | 10.8 | – | 10 to 99 |
| {CH2CO}-[Phe(3,4,5-F3)][NMeF][NMeNle][dP]DV[NMeF][Orn][dP]WYLCG[Pra′]([triazole-X2]) (thioether N-13) [Example 14081] | – | 100 to 1600 | – |
| B3 | 627 | – | – |
| {CH2CO}-F[NMeF][NMeNle][Sar]DV[NMeF]Y[NMeE]WYLCGGGK([PEG4‑propionyl-Biotin])-NH2 (thioether N-13) [Example 3620] | 9 | – | – |
